Laboratory results: paper PMC314469, “Protein Interaction Networks by Proteome Peptide Scanning” (PLoS Biology, 2004)

T1: Yhr016c SH3 (YSC84_YEAST), P32793
T1 chain: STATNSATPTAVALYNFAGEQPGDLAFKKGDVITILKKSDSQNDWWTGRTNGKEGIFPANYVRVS

T2: Boi2 SH3 (BOI2_YEAST), P39969
T2 chain: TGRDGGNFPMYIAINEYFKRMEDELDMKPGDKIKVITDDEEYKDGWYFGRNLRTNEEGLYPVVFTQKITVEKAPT

T3: Rvs167 SH3 (RV167_YEAST), P39743
T3 chain: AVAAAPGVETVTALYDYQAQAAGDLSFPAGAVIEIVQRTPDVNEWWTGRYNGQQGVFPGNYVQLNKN

T4: Boi1 SH3 (BOI1_YEAST), P38041
T4 chain: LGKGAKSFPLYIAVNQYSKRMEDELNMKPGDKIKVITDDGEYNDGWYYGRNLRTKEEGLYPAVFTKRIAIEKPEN

T5: Yfr024 SH3 (LSB3_YEAST), P43603
T5 chain: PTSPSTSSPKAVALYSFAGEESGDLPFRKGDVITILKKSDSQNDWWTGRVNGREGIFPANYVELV


Target: T1, Yhr016c SH3 (YSC84_YEAST), P32793
Assay: SPOT array

Binder	normalised SPOT signal, Boehringer light units (BLU); mean over the file's lines of this peptide
IRYPVTPNKASLDR [YOR384W 132-145]	207
INQPSTPKKLKRKS [YDR501W 316-329]	126
ISNPSSPAKTKRDI [YMR137C 188-201]	130
IIKPYLPFKISKWL [YJR054W 69-82]	169
IIFPTSPTKLTFSN [YDR130C 112-125]	0
ILKPDIPLRNMLLR [YGL224C 138-151]	2420
ILYPDIPGKNYFLT [YOL087C 29-42]	115
ILLPPLPERAYIMD [YGL144C 459-472]	50600
IINPDTPHRRIFNQ [YBL019W 264-277]	530
IIFPYDPLKLGTHA [YBR163W 509-522]	55.6
IIIPPIPSKHSLLK [YDR425W 171-184]	204
IMPPPKPFRHGLDS [YBR108W 517-530]	35500
ILSPGYPNKSFNNK [YGL073W 653-666]	282
ILTPDFPERRRLMK [YLR233C 283-296]	1780
IKYPGSPQRSSSFS [YMR036C 139-152]	198
IHSPRIPSKDEFIA [YER091C 704-717]	187
IPTPSKPLKKRKKR [YCL027W 390-403]	213
IQHPFLPRKIPIIT [YGR094W 408-421]	250
IIGPDEPEKSLILK [YMR066W 43-56]	63.1

Target: T2, Boi2 SH3 (BOI2_YEAST), P39969
Assay: SPOT array

Binder	normalised SPOT signal, Boehringer light units (BLU); mean over the file's lines of this peptide
IRYPVTPNKASLDR [YOR384W 132-145]	166
INQPSTPKKLKRKS [YDR501W 316-329]	22.2
ISNPSSPAKTKRDI [YMR137C 188-201]	48.8
IIKPYLPFKISKWL [YJR054W 69-82]	39.8
IIFPTSPTKLTFSN [YDR130C 112-125]	13.9
ILKPDIPLRNMLLR [YGL224C 138-151]	60
ILYPDIPGKNYFLT [YOL087C 29-42]	46.9
ILLPPLPERAYIMD [YGL144C 459-472]	38.9
IINPDTPHRRIFNQ [YBL019W 264-277]	71.9
IIFPYDPLKLGTHA [YBR163W 509-522]	12.7
IIIPPIPSKHSLLK [YDR425W 171-184]	50
IMPPPKPFRHGLDS [YBR108W 517-530]	222
ILSPGYPNKSFNNK [YGL073W 653-666]	68.5
ILTPDFPERRRLMK [YLR233C 283-296]	99.2
IKYPGSPQRSSSFS [YMR036C 139-152]	38.1
IHSPRIPSKDEFIA [YER091C 704-717]	42
IPTPSKPLKKRKKR [YCL027W 390-403]	50.2
IQHPFLPRKIPIIT [YGR094W 408-421]	192
IIGPDEPEKSLILK [YMR066W 43-56]	33.5

Target: T3, Rvs167 SH3 (RV167_YEAST), P39743
Assay: SPOT array

Binder	normalised SPOT signal, Boehringer light units (BLU); mean over the file's lines of this peptide
IRYPVTPNKASLDR [YOR384W 132-145]	41.2
INQPSTPKKLKRKS [YDR501W 316-329]	62.6
ISNPSSPAKTKRDI [YMR137C 188-201]	17.6
IIKPYLPFKISKWL [YJR054W 69-82]	68.5
IIFPTSPTKLTFSN [YDR130C 112-125]	84.2
ILKPDIPLRNMLLR [YGL224C 138-151]	1640
ILYPDIPGKNYFLT [YOL087C 29-42]	32.7
ILLPPLPERAYIMD [YGL144C 459-472]	14900
IINPDTPHRRIFNQ [YBL019W 264-277]	157
IIFPYDPLKLGTHA [YBR163W 509-522]	82.3
IIIPPIPSKHSLLK [YDR425W 171-184]	22.6
IMPPPKPFRHGLDS [YBR108W 517-530]	1540
ILSPGYPNKSFNNK [YGL073W 653-666]	100
ILTPDFPERRRLMK [YLR233C 283-296]	245
IKYPGSPQRSSSFS [YMR036C 139-152]	22.8
IHSPRIPSKDEFIA [YER091C 704-717]	73.2
IPTPSKPLKKRKKR [YCL027W 390-403]	85
IQHPFLPRKIPIIT [YGR094W 408-421]	35
IIGPDEPEKSLILK [YMR066W 43-56]	23.6

Target: T4, Boi1 SH3 (BOI1_YEAST), P38041
Assay: SPOT array

Binder	normalised SPOT signal, Boehringer light units (BLU); mean over the file's lines of this peptide
IRYPVTPNKASLDR [YOR384W 132-145]	86.7
INQPSTPKKLKRKS [YDR501W 316-329]	152
ISNPSSPAKTKRDI [YMR137C 188-201]	90.8
IIKPYLPFKISKWL [YJR054W 69-82]	37.9
IIFPTSPTKLTFSN [YDR130C 112-125]	45.5
ILKPDIPLRNMLLR [YGL224C 138-151]	14700
ILYPDIPGKNYFLT [YOL087C 29-42]	118
ILLPPLPERAYIMD [YGL144C 459-472]	12.7
IINPDTPHRRIFNQ [YBL019W 264-277]	314
IIFPYDPLKLGTHA [YBR163W 509-522]	22.3
IIIPPIPSKHSLLK [YDR425W 171-184]	92.9
IMPPPKPFRHGLDS [YBR108W 517-530]	258
ILSPGYPNKSFNNK [YGL073W 653-666]	92.5
ILTPDFPERRRLMK [YLR233C 283-296]	8730
IKYPGSPQRSSSFS [YMR036C 139-152]	105
IHSPRIPSKDEFIA [YER091C 704-717]	88.8
IPTPSKPLKKRKKR [YCL027W 390-403]	97.5
IQHPFLPRKIPIIT [YGR094W 408-421]	327
IIGPDEPEKSLILK [YMR066W 43-56]	95.1

Target: T5, Yfr024 SH3 (LSB3_YEAST), P43603
Assay: SPOT array

Binder	normalised SPOT signal, Boehringer light units (BLU); mean over the file's lines of this peptide
IRYPVTPNKASLDR [YOR384W 132-145]	94.5
INQPSTPKKLKRKS [YDR501W 316-329]	2480
ISNPSSPAKTKRDI [YMR137C 188-201]	108
IIKPYLPFKISKWL [YJR054W 69-82]	878
IIFPTSPTKLTFSN [YDR130C 112-125]	314
ILKPDIPLRNMLLR [YGL224C 138-151]	12900
ILYPDIPGKNYFLT [YOL087C 29-42]	116
ILLPPLPERAYIMD [YGL144C 459-472]	26200
IINPDTPHRRIFNQ [YBL019W 264-277]	1670
IIFPYDPLKLGTHA [YBR163W 509-522]	17.2
IIIPPIPSKHSLLK [YDR425W 171-184]	3190
IMPPPKPFRHGLDS [YBR108W 517-530]	30900
ILSPGYPNKSFNNK [YGL073W 653-666]	293
ILTPDFPERRRLMK [YLR233C 283-296]	13700
IKYPGSPQRSSSFS [YMR036C 139-152]	391
IHSPRIPSKDEFIA [YER091C 704-717]	224
IPTPSKPLKKRKKR [YCL027W 390-403]	1580
IQHPFLPRKIPIIT [YGR094W 408-421]	1120
IIGPDEPEKSLILK [YMR066W 43-56]	86
